Source: publication doi:10.1101/2021.03.15.435440 (bioRxiv, 2021)
Where two headings read alike, the source gives them in different places.

What was measured:
[1] = molecular target: T1, wildtype SARS-2 RBD (SARS-CoV-2, GenBank MN975262.1 …, UniProt A0A679G9E9)
[2] = molecular target: T1, wildtype SARS-2 RBD; test: BLI

Binder	binding result [1]	binding result [2]
Ab15 (antibody, V domains shown) VH: EVQLQQSGPELVKPGASVKISCKASGYSFTGYYMNWVKQSPEKSLEWIGEINPNFGGTTYNQKFKAKATLTVDKSSSTAYMQLKSLTSEDSAVYYCARYYGNLYAMDYWGQGTSVTVS VL: DILMTQSPSSMSVSLGDTVSITCHASQGISSNIGWLQQKPGKSFKGLIYHGTNLEDGVPSRFSGSGSGAAYSLTISSLESEDFADYYCVQYTHFPYTFGGGTKLEIK	binds	–
Ab16 Fab (Fab, V domains shown) VH: EVQLQQSGPELVKPGASVKISCKASGYSFNNYYMNWVKQSPEKSLEWIGEINPNSGYTSYNQKFRAKATLTVDKSSTTAYMQLKSLTSEDSAVYYCARYFGNLFAMDFWGQGTSVTVS VL: DILMTQSPSSMSVSLGDTVSITCHASQGIGSNIGWLQQKPGKSFKGLIYLGTNLEDGVPSRFSGSGSGADYSLTISSLESEDFADYYCVQYVQFPYTFGGGTKLEIK	–	binds
Ab20 (antibody, V domains shown) VH: EVQLQQSGPELVKPGASVKISCKASGFSFTGYSMNWMKQSPEKSLEWIGEINPTTGGTTYNQKFKAKATLTVDKSSSTAYIQLKSLTSEDSAVYYCARGRADYWGQGTTLTVSS VL: DIVLTQSPASLAVSLGQRATISCRASESVEYYGTGLVQWFQQKPGQPPKLLIYAASNVESGVPARFSGSGSGTDFSLNIHSVEEDDIAMYFCHQSRKLPWTFGGGTKLEIK	binds	–
Ab19 (antibody, V domains shown) VH: QVQLQQSGAELARPGASVKLSCKASGYPFTSYGINWVKQRTGQGLEWIGEIYPRIGNTYYNEKFKGKATLTADKSSSTAYMEFRSLTSEDSAVYFCARSWNSNYGEYYFDYWGQGTTLTVS VL: DIVMTQSHKFMSTSIGDRVSITCKASHDVSTAVAWYQQKPGQSPKLLIYWASTRHTGVPDRFTGSGSGTDYTLTIRSVQAEDLALYYCQQHYSTPYTFGGGTKLEIK	binds	–
